Data on 3 molecules can be found in PMC12421817, “c-di-GMP regulates bacterial NAD biosynthesis via targeting the transcriptional repressor NadR” (mBio, 2025).

Series [1] concerns the target T1, NadR (Salmonella enterica serovar Typhimurium) (UniProt P24518).
T1 sequence: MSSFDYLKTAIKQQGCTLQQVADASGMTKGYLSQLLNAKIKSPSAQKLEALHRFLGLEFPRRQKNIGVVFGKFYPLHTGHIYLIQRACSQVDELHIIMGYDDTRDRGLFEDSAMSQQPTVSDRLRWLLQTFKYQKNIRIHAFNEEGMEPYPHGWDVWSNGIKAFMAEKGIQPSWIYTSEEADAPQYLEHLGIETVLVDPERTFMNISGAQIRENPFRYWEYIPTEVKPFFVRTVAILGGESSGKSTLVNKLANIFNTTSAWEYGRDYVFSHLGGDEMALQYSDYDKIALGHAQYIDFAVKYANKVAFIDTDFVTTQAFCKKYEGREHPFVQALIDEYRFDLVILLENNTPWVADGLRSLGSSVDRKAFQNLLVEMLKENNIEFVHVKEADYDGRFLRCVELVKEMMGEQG
In words: EMSA. The conditions noted are these: EMSA: 50 ng DNA, 20 mM Tris pH 7.5, 100 mM NaCl, 10% glycerol, 4 mM MgCl2, 1% NP-40, 1 mM DTT, 25 uL, 20 min room temperature; 6% native PAGE, 0.5x TBE, SYBR …. (Mobility shift assays separate free from complexed probe on a gel.)

The next series has as its target T2, NadR (Salmonella enterica, UniProt P24518).
T2 construct: N-terminal His6-tagged NadR
T2 sequence (P24518 1-410): T1 sequence
Put plainly: ITC; also UV-crosslinking with unlabeled competitor, EMSA, enzyme activity stimulation. The series is classed as binding. A general note: ITC needs no label: the signal is the heat of the interaction.

The target in a further series is T3, YcgR (Salmonella enterica, UniProt Q8ZP19).
T3 construct: His6-YcgR
T3 sequence (Q8ZP19 whole entry): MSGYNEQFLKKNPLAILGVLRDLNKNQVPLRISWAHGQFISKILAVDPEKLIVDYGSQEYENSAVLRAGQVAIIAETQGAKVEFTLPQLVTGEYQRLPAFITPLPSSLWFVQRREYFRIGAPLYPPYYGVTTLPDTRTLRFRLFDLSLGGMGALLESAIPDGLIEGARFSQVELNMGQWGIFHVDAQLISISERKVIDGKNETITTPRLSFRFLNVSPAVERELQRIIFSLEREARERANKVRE
Put plainly: UV-crosslinking with biotinylated c-di-GMP (YcgR as positive-control protein). The series is classed as binding.

Take “GCTCATCGTGGCTTCTCGTTTTACTGACTTAACGAAACAACCGAATGAAAGCGTAATAAACGCCACAATCGGTTAATTTGTTTTATATGCTAAACAAGATAGCTGATTCAATAAGGAAAGTCACAATAATTACGTAGCCCCGTATCTGATGGCGGCGTAACGTCTTATCTGGCCTACGTGAGCGGTGCCGTCTGTAGGCCTGAT (double strand) [nadA-pnuC promoter]”: the binding entry in series [1] was “binds”.

As usually defined, the Kd is the free concentration of one partner at which half of the binding sites on the other are occupied at equilibrium, for simple one-to-one binding. Lower therefore signals a tighter complex. Regarding `Nc1nc2c(ncn2[C@@H]2O[C@@H]3COP(=O)(O)O[C@H]4[C@@H](O)[C@H](n5cnc6c(=O)[nH]c(N)nc65)O[C@@H]4COP(=O)(O)O[C@H]3[C@H]2O)c(=O)[nH]1` [c-di-GMP], the Kd on NadR came out at 160 ± 20 nM. Also, the “UV-crosslinking with biotinylated c-di-GMP (YcgR as positive-control protein)” value on YcgR is reported as “YcgR could obviously bind biotinylated c-di-GMP, while InvF, which was used as a negative control, showed no biotin-binding signal”. On to “GGTTCTTGTTTAATTTACTAAACATGGTTGCGGCAGATTAGCACTATATGGCGCTAAAAAGCACGTTATGATTTCGCTGGTGTTGTGCTTATTAAACATAAAATAAAAATACGGCGAGAGATAAACGGCAAAAAATATTTTATAGGGCAGGGTGTTAGCGTCGGATTTTGTAGTGAAATAAAGATGCTGTTAGGTTACTC (double strand) [nadB promoter]”, for which the binding entry in series [1] is “binds”.
